Here are results for three molecules from patent US20140274782A1, “AFFINITY REAGENTS AND METHODS FOR DETECTION, PURIFICATION, AND PROTEOMIC ANALYSIS OF METHYLATED PROTEINS” (The Board of Trustees of the Leland Stanford Junior …, priority 2013, published 2014).

The target in one test is T1, G9a and GLP (Homo sapiens, UniProt Q96KQ7+Q9H9B1).
T1 sequence (Q96KQ7 2-1210 limits assumed): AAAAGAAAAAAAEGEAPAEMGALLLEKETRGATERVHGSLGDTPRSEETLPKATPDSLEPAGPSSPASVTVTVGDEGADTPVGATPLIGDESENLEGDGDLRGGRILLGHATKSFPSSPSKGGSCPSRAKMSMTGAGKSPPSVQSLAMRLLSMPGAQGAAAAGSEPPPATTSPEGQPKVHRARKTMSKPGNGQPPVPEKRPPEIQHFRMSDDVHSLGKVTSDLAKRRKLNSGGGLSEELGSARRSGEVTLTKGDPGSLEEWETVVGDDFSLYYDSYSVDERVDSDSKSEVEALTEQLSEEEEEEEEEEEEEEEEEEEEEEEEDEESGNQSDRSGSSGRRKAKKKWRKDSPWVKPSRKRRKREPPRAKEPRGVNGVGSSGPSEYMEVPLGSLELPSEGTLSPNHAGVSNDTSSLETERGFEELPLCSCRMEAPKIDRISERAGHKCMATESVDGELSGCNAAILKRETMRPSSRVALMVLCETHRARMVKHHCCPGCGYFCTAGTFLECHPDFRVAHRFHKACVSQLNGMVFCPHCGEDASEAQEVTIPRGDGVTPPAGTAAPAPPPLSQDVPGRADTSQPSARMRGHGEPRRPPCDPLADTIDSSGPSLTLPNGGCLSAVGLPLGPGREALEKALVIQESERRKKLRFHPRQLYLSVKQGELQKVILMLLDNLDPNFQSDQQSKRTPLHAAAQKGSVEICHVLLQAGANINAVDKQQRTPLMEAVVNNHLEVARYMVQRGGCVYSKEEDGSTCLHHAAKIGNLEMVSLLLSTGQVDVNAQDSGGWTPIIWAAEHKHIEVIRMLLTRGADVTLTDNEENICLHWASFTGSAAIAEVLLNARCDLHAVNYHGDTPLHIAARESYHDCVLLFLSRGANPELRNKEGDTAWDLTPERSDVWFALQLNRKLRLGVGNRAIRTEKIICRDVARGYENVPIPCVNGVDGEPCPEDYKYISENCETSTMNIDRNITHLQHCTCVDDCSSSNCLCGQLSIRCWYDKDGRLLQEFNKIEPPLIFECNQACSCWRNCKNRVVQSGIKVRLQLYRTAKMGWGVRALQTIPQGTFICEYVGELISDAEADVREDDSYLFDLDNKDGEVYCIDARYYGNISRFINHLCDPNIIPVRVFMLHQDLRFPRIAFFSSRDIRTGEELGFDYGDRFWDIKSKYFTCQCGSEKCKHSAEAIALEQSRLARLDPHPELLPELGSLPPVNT
T1 sequence (Q9H9B1 2-1298 limits assumed): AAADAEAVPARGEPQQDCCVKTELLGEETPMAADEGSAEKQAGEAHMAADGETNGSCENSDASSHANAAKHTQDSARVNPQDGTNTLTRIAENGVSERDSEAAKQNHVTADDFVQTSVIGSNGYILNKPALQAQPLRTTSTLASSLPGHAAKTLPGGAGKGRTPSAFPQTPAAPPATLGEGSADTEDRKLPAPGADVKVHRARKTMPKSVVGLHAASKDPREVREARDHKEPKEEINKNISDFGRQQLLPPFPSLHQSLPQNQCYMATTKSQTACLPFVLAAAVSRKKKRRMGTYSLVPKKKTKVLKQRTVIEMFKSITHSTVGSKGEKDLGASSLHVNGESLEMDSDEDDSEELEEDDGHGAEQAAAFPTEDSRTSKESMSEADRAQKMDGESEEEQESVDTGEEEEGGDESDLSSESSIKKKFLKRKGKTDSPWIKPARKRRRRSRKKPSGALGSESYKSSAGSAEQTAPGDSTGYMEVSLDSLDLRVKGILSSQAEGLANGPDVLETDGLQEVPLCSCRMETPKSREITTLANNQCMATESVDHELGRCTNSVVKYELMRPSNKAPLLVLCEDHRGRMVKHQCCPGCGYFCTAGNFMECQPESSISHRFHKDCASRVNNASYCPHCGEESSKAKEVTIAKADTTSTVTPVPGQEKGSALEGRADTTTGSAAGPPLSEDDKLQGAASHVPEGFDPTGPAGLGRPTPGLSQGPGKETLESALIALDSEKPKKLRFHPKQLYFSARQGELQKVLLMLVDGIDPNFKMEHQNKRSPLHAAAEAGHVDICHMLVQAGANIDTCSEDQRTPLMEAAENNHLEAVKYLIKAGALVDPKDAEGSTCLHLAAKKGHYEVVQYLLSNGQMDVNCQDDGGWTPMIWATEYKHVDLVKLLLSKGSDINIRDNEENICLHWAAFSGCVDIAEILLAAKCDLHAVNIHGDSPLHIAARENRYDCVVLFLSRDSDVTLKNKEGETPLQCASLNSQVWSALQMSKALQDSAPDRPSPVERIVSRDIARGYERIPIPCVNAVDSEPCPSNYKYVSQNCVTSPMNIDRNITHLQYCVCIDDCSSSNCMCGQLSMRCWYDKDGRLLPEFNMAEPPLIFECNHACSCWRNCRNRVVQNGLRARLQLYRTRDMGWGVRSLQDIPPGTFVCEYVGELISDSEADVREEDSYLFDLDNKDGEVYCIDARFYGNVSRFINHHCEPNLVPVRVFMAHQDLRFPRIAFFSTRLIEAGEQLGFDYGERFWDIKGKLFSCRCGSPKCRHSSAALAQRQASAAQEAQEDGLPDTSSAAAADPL
The test is described as follows: Triple SILAC pull-down after UNC0638 treatment of 293T cells, DMSO/UNC0638 ratio of protein captured by 3×MBT.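 On all read-outs here: mass spectrometry (Q-Exactive) SILAC quantitation, DMSO/UNC0638 ratio computed after subtracting 3×MBTD355N mutant pull-down background, only proteins with at least twofold 3×MBT over mutant signal considered.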 Also noted: cells were treated for 24 hours with UNC0638 at 2.5 μM or DMSO vehicle control; endogenous in cells; host or cells: HEK 293T. It counts as cell-based. As to conditions: for Relative to UNC0638 UNC Heavy: UNC0638 in heavy SILAC media; for Relative to UNC0638 UNC Light: UNC0638 in light SILAC media; for Relative to UNC0638 Average: average of UNC Light and UNC Heavy experiments; for Candidate G9a/GLP target: reduced association with 3xMBT after UNC0638 treatment.

The subject of the next test is 3×MBT domain of L3MBTL1. The test is described as follows: Triple SILAC pull-down, 3xMBT/3xMBTD355N ratio (cytoplasmic, nuclear and chromatin fractions of 293T cells).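 On all read-outs here: proteins quantified with MaxQuant, requiring at least two unique peptides and quantification in both label directions, normalized to the mean of proteins from a digested loading control.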 It counts as binding, human. As to conditions: for 3xMBT/D355N UNC Heavy: experiment with UNC0638 in heavy SILAC media; for 3xMBT/D355N UNC Light: experiment with UNC0638 in light SILAC media.
Where [1] appears, read: SILAC ratio DMSO/UNC0638 of protein pulled down with 3xMBT.
Where [2] appears, read: SILAC ratio, pull-down 3xMBT vs 3xMBTD355N.
Setting [3] is: SILAC ratio DMSO relative to UNC0638, pull-down with 3xMBT, all values in log base 2.
Setting [4] is: SILAC ratio 3xMBT vs 3xMBTD355N pull-down, 293T cells, all values in log base 2.

B1: DDX23 (protein, UniProt Q9BUQ8 1-820, looked up)
Probable ATP-dependent RNA …: MAGELADKKDRDASPSKEERKRSRTPDRERDRDRDRKSSPSKDRKRHRSRDRRRGGSRSRSRSRSKSAERERRHKERERDKERDRNKKDRDRDKDGHRRDKDRKRSSLSPGRGKDFKSRKDRDSKKDEEDEHGDKKPKAQPLSLEELLAKKKAEEEAEAKPKFLSKAEREAEALKRRQQEVEERQRMLEEERKKRKQFQDLGRKMLEDPQERERRERRERMERETNGNEDEEGRQKIREEKDKSKELHAIKERYLGGIKKRRRTRHLNDRKFVFEWDASEDTSIDYNPLYKERHQVQLLGRGFIAGIDLKQQKREQSRFYGDLMEKRRTLEEKEQEEARLRKLRKKEAKQRWDDRHWSQKKLDEMTDRDWRIFREDYSITTKGGKIPNPIRSWKDSSLPPHILEVIDKCGYKEPTPIQRQAIPIGLQNRDIIGVAETGSGKTAAFLIPLLVWITTLPKIDRIEESDQGPYAIILAPTRELAQQIEEETIKFGKPLGIRTVAVIGGISREDQGFRLRMGCEIVIATPGRLIDVLENRYLVLSRCTYVVLDEADRMIDMGFEPDVQKILEHMPVSNQKPDTDEAEDPEKMLANFESGKHKYRQTVMFTATMPPAVERLARSYLRRPAVVYIGSAGKPHERVEQKVFLMSESEKRKKLLAILEQGFDPPIIIFVNQKKGCDVLAKSLEKMGYNACTLHGGKGQEQREFALSNLKAGAKDILVATDVAGRGIDIQDVSMVVNYDMAKNIEDYIHRIGRTGRAGKSGVAITFLTKEDSAVFYELKQAILESPVSSCPPELANHPDAQHKPGTILTKKRREETIFA
For the molecule B1, in the test with G9a and GLP (setting [1]), the “Relative to UNC0638 UNC Heavy” value is 0.29 log base 2 and the “Relative to UNC0638 UNC Light” value was 0.54 log base 2. In the test with G9a and GLP, the “Relative to UNC0638 Average” value is 0.42 log base 2 and the “Candidate G9a/GLP target” value is recorded as “✓”. In the test on 3×MBT domain of L3MBTL1 (setting [2]), the “3xMBT/D355N UNC Heavy” value was determined as 2.24 log base 2 and the “3xMBT/D355N UNC Light” value amounted to 2.27 log base 2.

B2: CAND1 (protein, UniProt Q86VP6 2-1230, looked up)
Cullin-associated …: ASASYHISNLLEKMTSSDKDFRFMATNDLMTELQKDSIKLDDDSERKVVKMILKLLEDKNGEVQNLAVKCLGPLVSKVKEYQVETIVDTLCTNMLSDKEQLRDISSIGLKTVIGELPPASSGSALAANVCKKITGRLTSAIAKQEDVSVQLEALDIMADMLSRQGGLLVNFHPSILTCLLPQLTSPRLAVRKRTIIALGHLVMSCGNIVFVDLIEHLLSELSKNDSMSTTRTYIQCIAAISRQAGHRIGEYLEKIIPLVVKFCNVDDDELREYCIQAFESFVRRCPKEVYPHVSTIINICLKYLTYDPNYNYDDEDEDENAMDADGGDDDDQGSDDEYSDDDDMSWKVRRAAAKCLDAVVSTRHEMLPEFYKTVSPALISRFKEREENVKADVFHAYLSLLKQTRPVQSWLCDPDAMEQGETPLTMLQSQVPNIVKALHKQMKEKSVKTRQCCFNMLTELVNVLPGALTQHIPVLVPGIIFSLNDKSSSSNLKIDALSCLYVILCNHSPQVFHPHVQALVPPVVACVGDPFYKITSEALLVTQQLVKVIRPLDQPSSFDATPYIKDLFTCTIKRLKAADIDQEVKERAISCMGQIICNLGDNLGSDLPNTLQIFLERLKNEITRLTTVKALTLIAGSPLKIDLRPVLGEGVPILASFLRKNQRALKLGTLSALDILIKNYSDSLTAAMIDAVLDELPPLISESDMHVSQMAISFLTTLAKVYPSSLSKISGSILNELIGLVRSPLLQGGALSAMLDFFQALVVTGTNNLGYMDLLRMLTGPVYSQSTALTHKQSYYSIAKCVAALTRACPKEGPAVVGQFIQDVKNSRSTDSIRLLALLSLGEVGHHIDLSGQLELKSVILEAFSSPSEEVKSAASYALGSISVGNLPEYLPFVLQEITSQPKRQYLLLHSLKEIISSASVVGLKPYVENIWALLLKHCECAEEGTRNVVAECLGKLTLIDPETLLPRLKGYLISGSSYARSSVVTAVKFTISDHPQPIDPLLKNCIGDFLKTLEDPDLNVRRVALVTFNSAAHNKPSLIRDLLDTVLPHLYNETKVRKELIREVEMGPFKHTVDDGLDIRKAAFECMYTLLDSCLDRLDIFEFLNHVEDGLKDHYDIKMLTFLMLVRLSTLCPSAVLQRLDRLVEPLRATCTTKVKANSVKQEFEKQDELKRSAMRAVAALLTIPEAEKSPLMSEFQSQISSNPELAAIFESIQKDSSSTNLESMDTS
In the case of B2, in the test with G9a and GLP (setting [3]), the “Relative to UNC0638 UNC Heavy” value is on record as −3.85 log base 2 and the “Relative to UNC0638 UNC Light” value came out at 1.78 log base 2. Moreover, the “Relative to UNC0638 Average” value with G9a and GLP (all values in log base 2) was −1.03 log base 2. In addition, in the test on 3×MBT domain of L3MBTL1 (setting [4]), the “3xMBT/D355N UNC Heavy” value came out at 3.61 log base 2 and the “3xMBT/D355N UNC Light” value is recorded as 3.86 log base 2.

B3: NUDT16L1 (protein, UniProt Q9BRJ7 1-211, looked up)
Tudor-interacting repair …: MSTAAVPELKQISRVEAMRLGPGWSHSCHAMLYAANPGQLFGRIPMRFSVLMQMRFDGLLGFPGGFVDRRFWSLEDGLNRVLGLGLGCLRLTEADYLSSHLTEGPHRVVAHLYARQLTLEQLHAVEISAVHSRDHGLEVLGLVRVPLYTQKDRVGGFPNFLSNAFVSTAKCQLLFALKVLNMMPEEKLVEALAAATEKQKKALEKLLPASS
As for B3, in the test with G9a and GLP (setting [1]), the “Relative to UNC0638 UNC Heavy” value is on record as 0.57 log base 2 and the “Relative to UNC0638 UNC Light” value is reported as 0.28 log base 2. Besides, in the test with G9a and GLP, the “Relative to UNC0638 Average” value was found to be 0.43 log base 2 and the “Candidate G9a/GLP target” value is “✓”. Moreover, in the test on 3×MBT domain of L3MBTL1 (setting [2]), the “3xMBT/D355N UNC Heavy” value came out at 1.84 log base 2 and the “3xMBT/D355N UNC Light” value is 1.77 log base 2.
